Data published in the supplement of paper PMC10567573.

B1: RHOBTB2 (parent)
chain: HHHHGRDFLLRAASFDVCESVDEA

Variants of: B1
Experiment: protein stability index of a GFP-peptide fusion (GPS, HEK-293T) (PSI 1-6); higher = more stable
Settings: c terminus: a fixed tail appended
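Also: lentivirally expressed fusions sorted by FACS into six bins by GFP to DsRed ratio, PSI derived from sequencing read proportions per bin multiplied by bin number.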

Variant | protein stability index
G5Y | 2.33
G5R | 4.3
G5V | 3.37
G5N | 3.95
G5E | 4.42
G5S | 4.61
G5D | 4.86
G5K | 4.2
G5I | 3.27
G5A | 3.83
G5H | 4.34
G5L | 2.6
G5M | 3.42
L10I | 4.21
L10K | 4.09
L10R | 4.55
L10M | 3.64
L10C | 4.2
L10S | 3.81
L10A | 3.94
L10T | 4.8
L10Q | 4.86
L10G | 4.29
L10N | 5.01

Variant | protein stability index
L10V | 4.06
L10P | 4.18
L10F | 2.96
L10W | 2.34
S14H | 3.57
S14N | 4.5
S14E | 3.89
S14C | 3.36
S14R | 2.62
S14M | 3.05
S14D | 4.13
S14K | 3.17
S14T | 3.47
S14Y | 2.79
S14V | 2.84
S14P | 4.22
S14L | 2.88
S14W | 2.66
H3M | 3.4
H3D | 4.67
H3L | 3.62
H3I | 3.52
H3R | 2.76
H3C | 2.92

Variant | protein stability index
H3N | 4.44
H3S | 3.83
H3A | 3.58
H3T | 3.58
H3Y | 3.51
H3G | 3.9
C18D | 4.75
C18K | 3.94
C18T | 3.7
C18R | 3.65
C18P | 4.42
C18E | 4.77
C18V | 3.95
C18A | 3.96
C18W | 2.48
C18H | 3.4
C18G | 4.24
C18M | 3.37
E19R | 2.73
E19V | 2.49
E19A | 2.9
E19H | 2.9
E19T | 2.76
E19I | 2.17

Variant | protein stability index
E19Y | 1.74
E19P | 3.06
E19K | 3
E19W | 2.2
E19N | 3.54
E19F | 2.22
E19L | 1.56
E19D | 3.72
H1Q | 4.26
H1M | 4.17
H1N | 4.53
H1L | 3.74
H1F | 1.48
H1Y | 3.84
H1D | 4.88
H1P | 4.71
H1E | 4.42
H1V | 3.21
H1K | 4.35
H1A | 4.49
H1I | 3.45
H1T | 4.59
H1G | 4.55
H1W | 3.36

Variant | protein stability index
H1C | 4.02
V21N | 4.18
V21Y | 3.66
V21T | 3.56
V21I | 3.96
V21K | 4.5
V21C | 3.25
V21H | 3.08
V21M | 3.92
V21E | 4.51
V21G | 4.17
V21L | 3.62
V21F | 3.47
V21P | 3.61
V21Q | 4.2
V21A | 3.8
F15G | 4.38
F15C | 4.57
F15P | 4.37
F15R | 4.88
F15T | 4.74
F15E | 4.86
F15N | 4.35
F15K | 4.58

Variant | protein stability index
F15A | 4.78
F15Y | 3.92
F15L | 3.24
F15V | 4.33
F15M | 4.74
F15H | 4.11
F15D | 5.01
F15W | 3.94
V17Q | 4.24
V17F | 3.12
V17N | 4
V17C | 4.17
V17Y | 4.16
V17H | 3.55
V17T | 3.53
V17E | 4.56
V17L | 3.2
V17D | 4.54
V17G | 3.99
V17K | 3.94
V17S | 4.11
V17M | 3.68
L9C | 4.48
L9N | 5.06

Variant | protein stability index
L9M | 4.41
L9S | 4.03
L9D | 5.28
L9Q | 5.09
L9R | 4.3
L9Y | 3.54
L9T | 4.53
L9P | 4.81
L9E | 4.89
A24E | 4.15
A24P | 3.56
A24T | 3.95
A24H | 3.92
A24L | 3.75
A24S | 3.82
A24D | 4.26
A24Y | 3.29
A24K | 3.85
A24W | 2.53
A24C | 3.04
A24V | 3.27
A24G | 3.88
A24N | 3.59
A24I | 3.17

Variant | protein stability index
A24F | 2.65
A24M | 3.61
A13D | 4.51
A13Q | 3.84
A13V | 3.14
A13S | 3.96
A13P | 4.66
A13G | 4.33
A13L | 3.2
A13M | 2.49
A13W | 2.45
A13N | 4.38
A13K | 4.09
A13I | 3.12
A13H | 3.75
A13T | 3.49
D7L | 1.82
D7A | 2.97
D7M | 1.79
D7I | 1.99
D7W | 2.29
D7F | 2.06
D7S | 3.17
D7V | 2.87

Variant | protein stability index
D7E | 3.8
D7K | 3.85
D7Q | 3.18
D7P | 3.31
D7Y | 2.04
D7N | 3.25
S20A | 3.08
S20Y | 3.21
S20C | 2.94
S20Q | 3.83
S20T | 4
S20F | 2.88
S20L | 3.16
S20E | 4.46
S20G | 4.1
S20N | 3.98
S20V | 3.03
S20D | 4.1
S20R | 3.34
S20W | 2.39
S20H | 2.81
F8Y | 3.57
F8K | 4.61
F8Q | 5.04

Variant | protein stability index
F8P | 5.21
F8E | 4.89
F8A | 5.04
F8R | 4.74
F8D | 5.15
F8S | 4.37
F8T | 4.28
F8N | 5.33
F8I | 4.19
F8W | 3.28
F8M | 4.86
A12P | 4.52
A12Q | 3.73
A12R | 4.37
A12C | 2.4
A12N | 3.82
A12M | 2.96
A12L | 3.14
A12Y | 2.08
A12F | 1.92
A12H | 2.94
A12D | 4.55
A12E | 5.13
A12G | 4.25

Variant | protein stability index
A12T | 1.66
A12K | 4.26
R6P | 4.19
R6W | 2.55
R6A | 4.33
R6L | 3.81
R6Q | 4.37
R6D | 4.61
R6M | 3.49
R6N | 4.59
R6T | 4.2
R6K | 4.5
R6F | 2.8
R6I | 2.12
R6Y | 3
R11F | 1.67
R11K | 4.17
R11Q | 3.94
R11S | 3.85
R11A | 3.29
R11H | 4.06
R11N | 3.87
R11Y | 2.39
R11T | 3.72

Variant | protein stability index
R11D | 5.18
R11W | 1.44
R11V | 2.85
R11I | 2.41
R11E | 5.3
H4K | 3.25
H4A | 3.67
H4M | 3.61
H4S | 4.15
H4P | 4.59
H4N | 4.15
H4G | 3.73
H4Y | 3.3
H4W | 2.31
H4I | 3.83
H4F | 3.38
H4C | 2.67
H4T | 3.94
H4E | 3.96
D22S | 3.44
D22M | 3.04
D22A | 3
D22K | 3.33
D22H | 2.99

Variant | protein stability index
D22T | 3
D22P | 2.85
D22Y | 2.44
D22F | 2.21
D22I | 2.5
D22Q | 3.09
D22G | 3
D22L | 2.33
D22N | 3.14
D22W | 1.82
D16F | 1.89
D16Q | 3.5
D16H | 2.84
D16P | 3.19
D16G | 3.06
D16E | 3.74
D16C | 1.97
D16R | 2.48
D16N | 3.31
H2I | 3.92
H2S | 2.62
H2C | 3.43
H2K | 4.67
H2E | 4.75

Variant | protein stability index
H2P | 4.49
H2N | 4.52
H2M | 3.96
H2A | 4.04
H2L | 3.93
H2Q | 4.04
H2T | 1.8
H2Y | 4.16
E23T | 3.13
E23K | 2.57
E23S | 3.25
E23R | 3.37
E23W | 2.52
E23I | 2.92
E23A | 2.94
E23Y | 2.83
E23G | 3.21
E23F | 2.37
E23H | 2.93
E23C | 2.67
E23L | 2.02
E23M | 3.34
